Results from the DeepSol protein solubility set.

Test: soluble on expression in E. coli; label from the status in PepcDB or PDB records

Sequence	soluble on expression in E. coli
MGSDKIHHHHHHMFKNTFQSGFLSILYSIGSKPLQIWDKKVRNGHIKRITDNDIQSLVLEIEGTNVSTTYITCPADPKKTLGIKLPFLVMIIKNLKKYFTFEVQVLDDKNVRRRFRASNYQSTTRVKPFICTMPMRLDDGWNQIQFNLLDFTRRAYGTNYIETLRVQIHANCRIRRVYFSDRLYSEDELPAEFKLYLPVQNKAKQ	not soluble
MGSDKIHHHHHHMFKPWVGDDWGHQDNALQGIRLLVMGESHYCDPAKPELVGRCEPDVTSYVVRRYAIEESHRFFTGITQVISGKPKWQMSRDDVAAIWHSIAFYNYVPLYVGTQSRIRPGDKFALGRVPFEILLEQLRPRAILVCGYELWWWVLKGMPCGFNGDPASVPFQKIGPAIAARMKHPSSAYSSVRWRPTLLELLSRARALQQE	not soluble
MGSDKIHHHHHHMFLDDFHTVTDDRLCITAEQASRFAKCIAGDYNPIHDPDARRFCVPGDLLFALVMARFGLAQRMTFHFKGMVGDSVPLCFAQHGDTVSVTDHHGKVYLEVERGGDITHDAGVIEAFTRRYVAFSGRNFPHYLKPLMEEQGVMFNPQRPLVIYDSMGFSLSRLDVAEAGVAFTGATLDVTGKRGDALLQFQMTDADTVIGHGSKKLVVSGLREYDPPVMDAFVEQFMSLKAHSATTG	not soluble
MGSDKIHHHHHHMFLDGEEGLIGYIIVTGTAGAGKSSLVGALADRITSLGANVATLNLDPAAEKLPYDPSVDARDYVSVAELMDKGLGPNGALVAAVDSLINHVLDIREEIDYYSPDYVVVDTPGQLELFAYRVGGPLVLRGIMGDYNGVNIFLIDSIFIDNAISLVSALLLASSVAVRLGLPQVNAVSKADMLLPEVREEVIPRLGEPGFLEFLLEKDKTYEGAGKALAEELARAIETTGFIGEVLQASVLEPETVTLLAAKAQQILAGGDDYKIYDITGQ	not soluble
MGSDKIHHHHHHMFMKNLYIDPDITKASTISSEFYTSTEWFEITKEKIFSKTWQFCISTEELTTNRQLIPFTLLPGYLEEPLLFAKDELGTIRCLSNVCTHRGKILIEEPCVAHKIKCSYHGRRFNFCGELLHMPEFELTKDFPSNNDNLSQISTGILEPFLFASLSPVVPFHEVFAEIKERLFWLPMEKMRLDKEKCKDYVVKSHWALYCENYLEALHIPFVHPSLRKVIDCNTYTTELFRYCNLQLALASPDEVSFDLPKGAQDYGKQVAAYYFWIFPNTMLNFYPWGCSVNVVKPLSPELTQVSFLSFVLDESKFGKGAGGALDQVEQEDERVVESVQRGIKSRYYDIGRFSPTKEQGTHHFQRLLCEFLND	not soluble
MGSDKIHHHHHHMFNSEIKEKYLDTLSEGMVMQMRPIFAKAEITETLYNKDIYDFTSMQILELIRSFDQTTIGSVRRTLALLSLYIDWAISYKLSKGLTNLARTISEEELYECLGDKKLYITYSELEEMENQLVNYQSKAVLRLLFEEVSGLAHSELLSLTKKQVEDAMLNGNVLTLYDSKHGERKLKVSSECLVIALNAAQETKYKLKNGKAKGQTKEVFLVENDYVVKTKRTSNKGDGQASKFVITNLITDISEFFKINFLTPNTIVRSGHLYRAYQLYKEKGVIDNSVRYQIIDDFNLRVKSKYRAVYSMQDYINEEEVNKYYAEELGLKETTI	not soluble
MGSDKIHHHHHHMFQDKYVFAQLASFLNRSKFNRIVTKYDGDKYVKHFTCWNQLLALMFGQLSNRESLRDLIVALEAHHSKCYHLGMGKNVSKSSLARANQDRDYHIFEEYAYYLVSEARQKCANHIFKLGGNVYAFDSTTIDLCLSVFWWAKFRKKKGGIKVHTLYDVETQIPAFFHITEASVHDSKVMIEIPYEPSSYYIFDRGYNNFKMLYKIHQIEAYFVVRAKKNLQYKSIQWKRRLPKNVLSDASVLLTGFYPKQYYPKPLRLVKYWDEEQEREFTFITNAMHISALQVAELYKNRWQVELFFKWLKQHLKIKRFWGTTENAVRIQIYAAICAYCLVAIIQHDMQLDRSTYEVLQILSISLTDKTHLRDLFDKTKFQNDKERFGPNGPSLFNF	not soluble
MGSDKIHHHHHHMFQLHHKLAADSFLVGDFPLSTCRLINDCQFPWLILVPRVSGIKELYELSEADQTQFLRESSWLSSQLAKTFQADKMNVAALGNQVPQLHFHHIVRYQNDMQWPNPVWGIPAVPYSKEVLAQMQQTLMMALRGHHQMPFDWQM	not soluble
MGSDKIHHHHHHMFQNKKHRIALISIDGDPAVEIGQEEAGGQNVYVRQVGYALAQQGWQVDMFTRRSNSEQSAIAQHGPNCRTIRLKAGPAEFIGRDNLFDHLPEFIEEFQKFQQRQGFHYSLIHTNYWLSSWVGMELKKQQSLIQVHTYHSLGAVKYRSIGDVPVIAAQRLAVEKACLETIDCVVATSPQEQKHMRVLVSSKGNIEMIPCGTDTDKFGGIQRTAAREKLGIAPDAKIVLYVGRFDRRKGIETLVRAVAKSSLRGEANLQLVIGGGSRPGQSDAIERDRIASIVTELGLENCTTFAGRLDETVLPFYYAAADVCVVPSHYEPFGLVAIEAMASQTPVVASDVGGLQFTVVPEVTGLLAPPKDEVAFAAAIDRILINPTWRDQLGEAARQRTEIAFSWYSVGFRLTQLYTRLLAQTASNTRPRIAA	not soluble
MGSDKIHHHHHHMFRYDVISNKKNVNPHILALHHHNEKTWISSSSGGVFASLTDYALRQAGVIFGAIYDDNFVVVHRRAETQEDTLKFRGSKYVQSNLTGIYQQVKFYLQEQRFVLFSGTPCQVEGLKGYLQRSYDNLLTVDILCHGVPSPRVFHDYLNFIRQNSDFHFTGIFMKDKTFGWGYQNSRLFFGKNASQFNTVLSRLWNDIFYSHLTTRPSCHACRFTNYLRPGDITIGDFWGIEKHHPQFTDSRGISLIMLNNTKAEIVWNHIKDDFNYLESNIKECIQPNLKYPVPEPVNKATFWQDYASMPFFQIMNKYYRITHQDLLKNRFYMILLTLKKRFT	not soluble
MGSDKIHHHHHHMGASAISQQISKLEQELSIRLLQRNAFGVTPTPAGLAFLKHSQLILRQVNFAIDAAHSARLSGHVSLGFPPTITALIGIPLMKLMSERYPDIRLEIVETLSGNLIQSINSRQLDIAIIFTNEIDKQWSIQPLVREQMYLMARKEVLEKYGLSECIKSGIIQSQQIGDIPLVLPRQRHSLRKLLEHKIGQLNVVYEIDGLHLLMDSLIHLDLASVRPGSACLQEYKHKLQLLKVVDPEVERINYLVSLAEEELSPAALAAKSAIKACVKELIQNQIWPCSEIIL	not soluble
MGSDKIHHHHHHMGFEMTRGHLTWNDFKIVMAIANAGSLSGAARSLGVNHATVFRRLGDIERRLGVALFERSRKGYKPSLAGEELANTARIMDEAAHSAERKVAGRDLRPSGEIWVTTTDSLLMGLLAPLFKEFRNRYPDIVLDVAVANEMLNLTRREADVGIRPVNRPPENLIGRRLATVGQAIFGHRNLGLDKGQSIDFLSQQPWIGAGPRLQDSVLEQWMAQKNLADACVFRVDTLVGLLSAVNEGLGLAALPCYLAETCPDIVQLSDPIPELNYDLRKPLKVATHST	not soluble
MGSDKIHHHHHHMGIDELYKKEFGIVAGVDEAGRGCLAGPVVAAAVVLEKEIEGINDSKQLSPAKRERLLDEIMEKAAVGIGIASPEEIDLYNIFNATKLAMNRALENLSVKPSFVLVDGKGIELSVPGTCLVKGDQKSKLIGAASIVAKVFRDRLMSEFHRMYPQFSFHKHKGYATKEHLNEIRKNGVLPIHRLSFEPVLELLTDDLLREFFEKGLISENRFERILNLLGARKSVVFRKERTNHNLPLF	soluble
MGSDKIHHHHHHMGIINAAFRLSQIERSIINKECHRTTCSLMDFIRDYTVVATDLEEAVQLRSTYNSLRRLGESDITEEDAVNILQQGTVIFNRISAYSYEELERKLVANYPNTPVLNAVDVVKKYSQKGNFKLGPVSTVLNAGEITGIVGENGNGKTTLLRILARLLSYDEGVLQYQFDGQETTEDYLIKHRIAYIPQRLESWQGTLRENLHYAATIHNIVGEENEKIVEFVIHRMGLSNFAHLGWKELSSGYKLRFELAKMLVWSPRILVLDEPLANLDINAQEWILQDFKSMASSIKNPVSVILSSQQLHEVEHVADNIIFLRNGRCDYSGAMNAFMQERDENVFELSGNFTSKELQPIFSNHAVQFSESGITIIVRTNTAITAADVLSMLISNGYTIKYFRDISTSTKQLFQL	not soluble
MGSDKIHHHHHHMGILYLKEHTSCYNYTKCIREGFLYHKFCDIEMDEEINETDSILFVIEGELEMSCNGKKMKLLAGNMICFGRGSRFKIHSRGKGSIVIAQFDNAVQSCEKISFAQLNSLDSPGDKIYPLEIRDRLHLFLKLLISYLEDGANCVHFHETKLKELFWSIRFYYTKTEQAAFFHPILGNDYDFKKKIFNNYRNARTVKELAGLCGTPLSSFKRKFLKEFREPAGNWLQKQINNIIKYKLADEDIPIGNIAEELHFSSHPQFCRYCKRNFGYTPGEWRKLLKNRDKTPGKLSGRV	not soluble
MGSDKIHHHHHHMGKLVVQGGAVLEGEVEISGSKNAALPIMAAAILCDEEVILKNVPRLQDVFVMIDILRSIGFRVEFEENELKIKRENDISQEVPYELVRKMRASFNVLGPIAVRTGRAKVALPGGCSIGVRPVDFHLEGLKKMGFSIKVEHGFVEACFERRIDYVTITLPFPSVGATEHLMTTAALLKGARVVIENAAMEPEIVDLQNFINRMGGHIEGAGTSRIVIEGVEKMQGVEYSIIPDRIEAGTYLVAIAASRGKGLVKNVNPDHLTNFFEKLEETGAKLKVLGNEVEIEMRERPKAVDVTTNPYPGFPTDLQPQMMAYLSTASGVSVITENVFKTRFLHVDELKRMGADIEVSGNVAIVKGVEKLSGAPVEGTDLRATAALLIAGIIADGVTEISNVEHIFRGYEDVIDKFSELGAKIEYVEKEN	not soluble
MGSDKIHHHHHHMGKSKRKILNWKQYNQALVNRGSVTFWLDKSAINAWHCKAHHGGRGRGFQFSDTAIETALMLKGVFKLSLRATEGFINSLFRLMDVPLAAPDYTCISKRAKTVEVKYRNPCRGPVTHLVVDSTGLKVYGEGEWKTRKHGKERRRTWRKLHLAIDADTHDVVSAEVSLVNVADNEVLPTMLNPLRRKVNQVSADGAYDTKECHKLLRHKGAKPTIPPRSNAGYWEDGHPRNEAVEALKSGTLKQWKDDNDYHQRSLSETAMYRYKQLISSKLSLRDYNAQVGEALAGVKAMNKVIGLGMPVRQTTA	not soluble
MGSDKIHHHHHHMGNILWVASYPKSGNTWVRAFLENYIQNQAQPIDINTMHTISTAESAAHRYQHYLPKDKTATTELTLEEVSVLRPQVQADIAHQANGTTFVKTHNYLGEYNGHPLHNSSVTSGAIYVVRNPLDVAISMANYFGYSIDEAIAYMAEEMTGTPNEAPHVPQIITSWSMHVSSWTADDASKLILRYEDMLDDPKKVFRKVESFLGLKKDPVRLKNAIKHSSFAQLKAQETKLGFVEKHENANAFFRNGGKHQWKTKLTPEQVQKIVATHYEQMKRFKYLPAGM	not soluble
MGSDKIHHHHHHMGNRRGFLKMSASLAAAPLIPESSAVSNELDIPVSNKRPHELARDEAHWRAVGRLYSIQEEIINLEHGYWGQMSIPVEQALARHTHRVNRELSWYARREYDRDFLKARAAVADALGVSVEELMLTRNATESFVNLITQYDELSSGNAILWADADYPEFKRMMSWLAESRQVRGTMLSLPAAGTDEDYIRIYREAFDALPDLKLMLLTHVSNQHGLVLPVREIAAIAKCRGIHVICDCAQSWGLLDFTLDDLNVDWAVFNLHKWIGSPVGVGALYMRHGTLVPVRPFPGEDSSDTDVANRVHLATSDFASFLTVPDALAFHRAIGGANKQARLNYLREAWVASLEGSSAVEVLGATGSKNASGMGAFRLRGQTSKVQVSALQTRLETEFRIFTVVRNDLASGACIRVTPQVFTPLEHVQALADAIVEISVTG	not soluble
MGSDKIHHHHHHMGQKVHPRGFRLGLSADWQAKWFNEKNYKEWLLEDEEIRKIIKNKYYHAGISEIYVERPDAERINITVKTARPGIIIGRKGSEITSLREELERKFNRRVVINIEEIKTPELDAQLVAESIASRIEKRASYKVAMKRAIMNAMRKGAQGIKVMVAGRLGGAEIARREWYLRGRLPLQKIKAIIDYGTATAWTKYGTIGIKVWIYKGDADI	not soluble
